Laboratory results: patent publication US20110038861 (published 2011)
Like-named read-outs stand apart in the source and are kept apart here.

B1: Mouse 2286 Fab (antibody, V domains shown)
VH: EVKLLESGGGLVQPGGSLKLSCAASGFDFSRYWMNWVRQAPGKGLEWIGEINPDSSTINYTPSLKDKFIISRDNAKNTLYLQMSKVRSEDTALYYCARQMGYWGQGTTLTVSS
VL: DIQMTQTTSSLSASLGDRVTISCSASQGISNYLNWFQQKPDGTVKLLIYYTSSLHSGVPSRFSGSGSGTDYSLTISNLEPEDIATYYCQQYRKLPYTFGGGTKLEIKR
B2: 2286 (8A1.2A1) (antibody, V domains shown)
VH: EVKLLESGGGLVQPGGSLKLSCAASGFDFSRYWMNWVRQAPGKGLEWIGEINPDSSTINYTPSLKDKFIISRDNAKNTLYLQMSKVRSEDTALYYCARQMGYWGQGTTLTVSS
VL: DIQMTQTTSSLSASLGDRVTISCSASQGISNYLNWFQQKPDGTVKLLIYYTSSLHSGVPSRFSGSGSGTDYSLTISNLEPEDIATYYCQQYRKLPYTFGGGTKLEIKR
B3: Humanized 2286 Fab (O8; VH3) (antibody, V domains shown)
VH: EVQLVESGGGLVQPGGSLRLSCAASYWMNWVRQAPGKGLEWVSEINPDSSTINYTPSLKDRFTISRDNAKNTLYLQMNSLRAEDTAVYYCARQMGYWGQGTTLTVSS
VL: DIQMTQSPSSLSASVGDRVTITCSASQGISNYLNWYQQKPGKAPKLLIYYTSSLHSGVPSRFSGSGSGTDFTFTISSLQPEDIATYYCQQYRKLPYTFGGGTKVEIKR
B4: Humanized 2286 Fab (O8; VH4) (antibody, V domains shown)
VH: QVQLQESGPGLVKPSETLSLTCTVSYWMNWIRQPPGKGLEWIGEINPDSSTINYTPSLKDRVTISKDTSKNQFSLKLSSVTAADTAVYYCARQMGYWGQGTLVTVSS
VL: DIQMTQSPSSLSASVGDRVTITCSASQGISNYLNWYQQKPGKAPKLLIYYTSSLHSGVPSRFSGSGSGTDFTFTISSLQPEDIATYYCQQYRKLPYTFGGGTKVEIKR
B5: 2324 (10B10.2E6) (antibody, V domains shown)
VH: VTLKESGPGILKPSQTLSLTCSFSGFSLSTSGMGVGWIRQSSGKGLEWLAHIWWDDDKYYNPSLKSQLTISKDTSRNQVFLKITSVDTADTATYYCARRGVRHRDYFDYWGQGTTLTVSS
VL: DVLMTQTPLSLPVSLGDQASISCRSSQSIVHSNGNTYLEWYLQKPGQSPKLLIYKVSNRFSGVPDRFSGSGSGTDFTLKISRVEAEDLGVYYCFQGSRVPLTFGAGTKLELKR

Assays:
Abeta 1-40 [1] = biological target: Abeta 1-40 (human); test: SPR
beta-APP = beta-APP (human); test: ELISA
Abeta 1-40 [2] = biological target: Abeta 1-40 (human)
Abeta 1-40 [3] = biological target: Abeta 1-40 (human); remark: listed apart in the source

Sequence of Abeta 1-40 (human) (P05067 672-711): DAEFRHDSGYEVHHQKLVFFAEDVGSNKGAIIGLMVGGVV
Sequence of beta-APP (human) (chain, as listed by the source): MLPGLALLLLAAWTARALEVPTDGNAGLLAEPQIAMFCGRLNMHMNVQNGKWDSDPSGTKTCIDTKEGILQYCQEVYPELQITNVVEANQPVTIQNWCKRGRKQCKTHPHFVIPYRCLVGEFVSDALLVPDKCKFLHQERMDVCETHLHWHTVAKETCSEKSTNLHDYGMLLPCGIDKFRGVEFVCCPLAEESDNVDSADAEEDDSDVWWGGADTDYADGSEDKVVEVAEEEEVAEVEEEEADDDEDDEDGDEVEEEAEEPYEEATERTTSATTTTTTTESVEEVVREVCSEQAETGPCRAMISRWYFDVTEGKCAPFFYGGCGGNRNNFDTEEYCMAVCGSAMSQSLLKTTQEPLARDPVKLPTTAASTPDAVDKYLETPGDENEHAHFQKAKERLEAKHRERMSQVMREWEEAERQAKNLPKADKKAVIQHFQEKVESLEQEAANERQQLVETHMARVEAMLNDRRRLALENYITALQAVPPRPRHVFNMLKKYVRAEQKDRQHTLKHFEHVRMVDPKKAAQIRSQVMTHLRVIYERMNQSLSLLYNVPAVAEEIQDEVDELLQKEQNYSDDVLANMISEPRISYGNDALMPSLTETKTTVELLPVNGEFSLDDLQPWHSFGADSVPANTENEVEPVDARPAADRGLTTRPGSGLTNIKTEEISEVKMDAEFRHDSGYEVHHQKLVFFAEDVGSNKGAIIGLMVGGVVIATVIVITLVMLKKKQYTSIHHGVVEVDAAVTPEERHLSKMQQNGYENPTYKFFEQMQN

| Binder | Kd (Abeta 1-40 [1]) [nM] | binding result (beta-APP) | Kd (Abeta 1-40 [2]) [nM] | Kd (Abeta 1-40 [3]) [nM] |
| --- | --- | --- | --- | --- |
| B1 | 76 |  |  |  |
| B2 |  | no binding | 2.7 |  |
| B3 | 500 |  |  |  |
| B4 | 500 |  |  |  |
| B5 |  | no binding |  | 0.9 |
